# From the supplement of paper PMC9170038
# System: MS2 coat protein
# Experiment: apparent KD of MS2 coat protein; designed switch direction (-1 OFF switch, 1 ON switch): 1; higher = weaker reporter binding
# Summary of the method: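 On Illumina chips, designed RNA switches with common flanks were made by stalled E. coli RNA polymerase. Titrations with SNAP-549-labelled MS2 coat protein, doubling from 0.7 or 1.5 nM to 3 µM, were done with no input, with 200 uM small-molecule ligand, or with an oligonucleotide input. Apparent KD is the median per design over clusters, from curve fits of normalised cluster fluorescence.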
# [1] = Eterna round: R95, input ligand: FMN 200 uM
# [2] = Eterna round: R95, input ligand: microRNA oligo, concentration not stated
# [3] = Eterna round: R95, input ligand: none
# [4] = input ligand: microRNA oligo, concentration not stated
Sequence,apparent KD of MS2 coat protein [1],apparent KD of MS2 coat protein [2],apparent KD of MS2 coat protein [3],apparent KD of MS2 coat protein (input ligand: FMN 200 uM),apparent KD of MS2 coat protein [4],apparent KD of MS2 coat protein (input ligand: none)
AAGAAUCUAUCUCAGGAUAUCAUGUCAAAGACAUGAGGAUCACCCAUGUACCAGGAAACUGGUUAUGAGAAGGGAGAUAGAUUCA [Mat - Same State 2 - Mod - D31] (puzzle: Same State 2),98.6 nM,118 nM,79.6 nM,–,–,–
AAGAAUCUAUCUCAGGAUAUCAUGUCAAAGACAUGAGGAUCACCCAUGUACCAGGAAACUGGUUAUGAGAAGGGAGAUAGAUUCG [Mat - Same State 2 - Mod - D37] (puzzle: Same State 2),235 nM,134 nM,233 nM,–,–,–
AAGACAAGCUUUAUGUUCUUCCUAUUCCAACAUGAGGAUCACCCAUGUAGUCUGACGAUUGUGAGUGUAGUUGAGAU [JR_SHM208A_Sub027] (puzzle: Sensor for hsa-mir-208a),58.3 nM,76.9 nM,76.5 nM,–,–,–
AAGAGAGAAAUACAGGAUAUGAGGAAAGGAACAUGAGGAUCACCCAUGUAAGAGAAAGGGAAAGAUCAGAAGGGUAGAGAAGAGA [JR_SS2_Sub001] (puzzle: Same State 2),76.6 nM,66.1 nM,264 nM,–,–,–
"AAGAUGGUUGUAGGAUAUCCACCACUGAAGGGUGGAGAAGGGCACUCCAACAUGAGGAUCACCCAUGUACUACAAGUAGCAUCG [Eternabot solution 26] (Eterna round: R96, puzzle: Same State NG 1)",–,–,–,267 nM,188 nM,240 nM
"AAGCUGUGUGUAUGGUCAUUGUCAACGGUACAUGAGGAUCACCCAUGUAGCAUUAACCAUCCGACUCUGUUGGAGGU [high scoring solution 6] (Eterna round: R96, puzzle: Sensor for hsa-mir-208a)",–,–,–,58.7 nM,40.7 nM,51.7 nM
"AAGUGGUCCCAAGGAUAUGUCCAAAAGAAGGGCUGAGACAUGAGGAUCACCCAUGUCUCGGCGGUACAGAAGGUGGAGACAGGU [Solaena] (Eterna round: R96, puzzle: Same State NG 2)",–,–,–,10.5 nM,10 nM,14 nM
"AAUUAAGAUCAAGGAUAUCACGUCGUUUAGACGUGAGAAGGUGAUAAUUACAUGAGGAUCACCCAUGUAUAACAUGAAUUAAUU [SSNG1/9-B3] (Eterna round: R96, puzzle: Same State NG 1)",–,–,–,25.5 nM,27.5 nM,32.1 nM
"AAUUAAGAUCGAGGAUAUCACGUCGUUUAGACGUGAGAAGGCGAUCAUAACAUGAGGAUCACCCAUGUAUUACAUGAAUUAAUU [SSNG1/4-B3] (Eterna round: R96, puzzle: Same State NG 1)",–,–,–,20.6 nM,26.6 nM,29.1 nM
AAUUAUUUACAUGAGGAUCACCCAUGUAUUAUUACAAGCUUUAUCCUCGUUUUAUUUAUUAUUAUUAUUAUUAUUAA [benbell_design1] (puzzle: Sensor for hsa-mir-208a version 2),369 nM,33 nM,326 nM,–,–,–
AAUUCACGAGCACAGGAUAUGCUUGCCAACACAUGAGGAUCACCCAUGUCGGGCUACUAAUAAGAGCAGAAGGGUGACUCAUGAU [Esticece] (puzzle: Same State 2),36.6 nM,342 nM,58.2 nM,–,–,–
"AAUUUAAUACAUGAGGAUCACCCAUGUAAAUUAAUUAAGAUCAAGGAUAUCAGCUCGAAUAGAGCUGAGAAGGUGAUCACAUGU [SSNG3/19-A1] (Eterna round: R96, puzzle: Same State NG 3)",–,–,–,–,244 nM,–
"AAUUUAAUACAUGAGGAUCACCCAUGUAAAUUAAUUAAGAUCAAGGAUAUCAGCUCGUUUAGAGCUGAGAAGGUGAUCACAUGU [SSNG3/19-A3] (Eterna round: R96, puzzle: Same State NG 3)",–,–,–,–,163 nM,–
